± gives the standard deviation.
Test: protein stability index of a GFP-peptide fusion (GPS, HEK-293T) (PSI 1-6); higher = more stable
[1] = treatment: DMSO, c terminus: a fixed tail appended
[2] = treatment: MLN4924 1 uM, 8 h, c terminus: a fixed tail appended
[3] = treatment: DMSO, c terminus: native
[4] = treatment: MLN4924 1 uM, 8 h, c terminus: native
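Note: 24-mer peptide tiles fused after GFP, lentivirally expressed, FACS-sorted into six equal bins by GFP/DsRed ratio, decoded by Illumina sequencing, PSI is the read-weighted mean bin number.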

Row | Sequence | protein stability index [1] | protein stability index [2] | protein stability index [3] | protein stability index [4]
1 | CGDYFPDGITNGASWYSLSKGMQD [CPN1] | 2.52 ± 0.12 | 2.74 ± 0.14 | – | –
2 | CGKYFQGRGLKSHAYIHSVQFSHH [USP39] | 2.37 ± 0.42 | 2.04 ± 0.56 | – | –
3 | CGPIAGSRQALSFEVPPCNYDPEK | 4.24 ± 0.23 | 4.13 ± 0.46 | – | –
4 | CHDKYTKIFNDFKDRMKSDHKRET [ZMYND11] | 4.08 ± 0.28 | 3.9 ± 0.28 | – | –
5 | CHSCQLYLPSTEFSVSSTSRRIYR [IQUB] | 2.45 ± 0.15 | 2.73 ± 0.54 | – | –
6 | CIRLWKYALDMQQSNLEPLSPMTA [FEM1A] | 2.52 ± 0.54 | 2.34 ± 0.35 | – | –
7 | CMHEVHTFVSTCQAIDATVAAELL [HES6] | 2.8 ± 0.85 | 2.34 ± 0.3 | – | –
8 | CMVGLLLIALLTWGYIRYSGQYRE [ATL3] | 2.95 ± 0.25 | 3.04 ± 0.36 | – | –
9 | CSEGFLINEDLKTCSRVDYCLLSD [MATN2] | 2.99 ± 0.44 | 3.28 ± 0.14 | – | –
10 | CWLPLLAGLLPPVPAQKFSALTFL [SMOC2] | 3.54 ± 0.15 | 2.82 ± 0.53 | – | –
11 | CYLSFPDSNSGCLGDTQFCFRFRQ [DENND6A] | 2.25 ± 0.28 | 2.4 ± 0.63 | – | –
12 | CYSSRPLLCWSVWWALSTCGYFQV [SLC19A2] | 2.53 ± 0.19 | 3.55 ± 0.31 | – | –
13 | DAIRGKVGYTRGLHVWQITWAMRQ [SPSB1] | 2.38 ± 0.54 | 2.36 ± 0.42 | – | –
14 | DCMGIDRQHIPDTYLCERCQPRNL [KMT2E] | 3.13 ± 0.33 | 3.4 ± 0.4 | – | –
15 | DDIRKGIVLLEELLPKGSKEEQRD [FIS1] | 4.63 ± 0.43 | 4.6 ± 0.27 | – | –
16 | DDRKLAALLKFHTLDSYEDKQKLK [YJU2B] | 3.97 ± 0.28 | 4.12 ± 0.27 | – | –
17 | DEEEDFFLRGPSGPRFGPRNDKIK [VAMP4] | 4.53 ± 0.26 | 4.62 ± 0.26 | – | –
18 | DEKQCKQCANKVLQHMKAVQADQE [LRRC59] | 4.78 ± 0.19 | 4.63 ± 0.22 | – | –
19 | DFDGKLKDIAGEFKEQLQALIPYV [ATL3] | 2.38 ± 0.47 | 2.94 ± 0.31 | – | –
20 | DFLLRAASFDVCESVDEAGGSGPA [RHOBTB2] | 3.96 ± 0.16 | 4.05 ± 0.29 | – | –
21 | DFRTKYETELSLRQLVEADINGLR [KRT36] | 3.15 ± 0.15 | 3.38 ± 0.17 | – | –
22 | DFSRCDMDGATLCNCALEELRLVF [ELF3] | 2.37 ± 0.15 | 2.11 ± 0.32 | – | –
23 | DGLVGMAIVGGMALGVAGLAGLIG [FIS1] | 2.33 ± 0.6 | 2.09 ± 0.5 | – | –

Row | Sequence | protein stability index [1] | protein stability index [2] | protein stability index [3] | protein stability index [4]
24 | DGYCMFNHVAVAARYAQQKHRIRR [HDAC6] | 3.05 ± 0.42 | 3.53 ± 0.2 | – | –
25 | DHNEAMKPEEPPQNLLREKIMKLP [PCMTD1] | 4.63 ± 0.32 | 4.66 ± 0.12 | – | –
26 | DHSFSLELGSEVDITEGDRKPDYT [ATF4] | 5.2 ± 0.29 | 5.34 ± 0.18 | – | –
27 | DHYAAIKKAWDDLKKYLEPRCPRM [FBXO3] | 2.55 ± 0.22 | 2.69 ± 0.064 | – | –
28 | DIDKKHLVLLRDGRTLIGFLRSID [LSM1] | 2.3 ± 0.31 | 2.25 ± 0.18 | – | –
29 | DIHGLRKVIDDTNITRLQLETEIE [KRT18] | 4.28 ± 0.28 | 4.16 ± 0.46 | – | –
30 | DINREQLNDIFHLLKSHTNVLSVN [TPH1] | 2.18 ± 0.17 | 2.27 ± 0.23 | – | –
31 | DIREEIRKVVQSLEQTAREILTLL [TSN] | 3.73 ± 0.94 | 3.57 ± 0.3 | – | –
32 | DITQEEYGEFYKSLTNDWEDHLAV [HSP90AB1] | 3.85 ± 0.17 | 4.01 ± 0.22 | – | –
33 | DKGEKLLRCKLAAFYRLADLFGWS [ADD1] | 2.59 ± 0.64 | 2.28 ± 0.24 | – | –
34 | DKPGTTQIVQLTQQVDTNISVILP [DENND6A] | 3.48 ± 0.23 | 3.68 ± 0.38 | – | –
35 | DKVRALEEANADLEVKIRDWYQRQ [KRT16] | 4.01 ± 0.11 | 4.04 ± 0.27 | – | –
36 | DKYCPLLIKEGGMPLLRDIIKMAT [ZER1] | 2.46 ± 0.3 | 2.22 ± 0.31 | – | –
37 | DLDPLELIALANRFCLPHLVALAE [RHOBTB1] | 2.5 ± 0.11 | 2.14 ± 0.2 | – | –
38 | DLPVVQGSSSFSLKGYPSLMRSQS [TRIM29] | 3.03 ± 0.25 | 3.3 ± 0.24 | – | –
39 | DLVTGGELFEDIVAREYYSEADAS [CAMK2B] | 4.73 ± 0.2 | 4.52 ± 0.34 | – | –
40 | DMKVNPIQGLASKWDYEKNEWKK [COX4I1] | – | – | 4.45 ± 0.27 | 4.72 ± 0.24
41 | DMSYSIRHSISMPAMRNSPTFKSF [TPD52L1] | 2.94 ± 0.24 | 2.95 ± 0.32 | – | –
42 | DNEDSELNGDYGENIYPYEEDKDE [MIA2] | 5.37 ± 0.24 | 4.86 ± 1.1 | – | –
43 | DNVAYARAFNTDHQTQLLYQASAM [RAD51] | 3.12 ± 0.047 | 3.27 ± 0.15 | – | –
44 | DQIGSEIIEELGEQRDQLERTKSR [VTI1B] | 5.53 ± 0.24 | 5.47 ± 0.37 | – | –
45 | DQTALSLEECLRLLEATCPFGENA [NFE2L1] | 3.31 ± 0.72 | 3.8 ± 0.74 | – | –
46 | DRDGTINLSEFQHVISRSPDFASS [CIB1] | 4.31 ± 0.28 | 4.31 ± 0.24 | – | –

Row | Sequence | protein stability index [1] | protein stability index [2] | protein stability index [3] | protein stability index [4]
47 | DRLTTFQENQARTHVLSKEVQHLR [LRRC45] | 4.12 ± 0.13 | 4.29 ± 0.16 | – | –
48 | DRVGTIKSKVVGDRENGSDNLPSS [TPD52L2] | 5.17 ± 0.29 | 5.17 ± 0.18 | – | –
49 | DSFPEGPERLHAIKEQLIQEGLLD [HDAC6] | 4.94 ± 0.49 | 4.76 ± 0.27 | – | –
50 | DSHLGGNARGMGIRSPRPASVATW [CTBP1-DT] | 3.56 ± 0.24 | 3.63 ± 0.2 | – | –
51 | DSLKPEQLDIEEEGRPGAATFHVG [TFE3] | 5.38 ± 0.093 | 4.96 ± 0.4 | – | –
52 | DSMTSQAKPEALSSPKFREEAAFP [ELOA2] | 4.9 ± 0.24 | 4.89 ± 0.13 | – | –
53 | DSSWYEPSAELVQTRMAVSLTAAE [ZNF232] | 4.26 ± 0.068 | 4.37 ± 0.29 | – | –
54 | DSVDAQNICHVWHMNVEALPEWIS [RNF180] | 2.44 ± 0.34 | 2.62 ± 0.38 | – | –
55 | DTDKLLNSASDPSLKDGLSDSDSE [PSD2] | 5.45 ± 0.36 | 5.57 ± 0.074 | – | –
56 | DTLGLGKTRRKTSARDASPTPSTD [NCK2] | 5.36 ± 0.25 | 5.15 ± 0.34 | – | –
57 | DTLQNDYFAIKQEVVTPDNMCMGR [ETS1] | 3.65 ± 0.31 | 4.05 ± 0.45 | – | –
58 | DTLRRRLLAPEAGSHPQQTQKLEE [TOR1AIP2] | 5.35 ± 0.3 | 5.41 ± 0.15 | – | –
59 | DTTEEVDHKPKLCRLAKGENGYGF [PDZK1] | 3.64 ± 0.32 | 3.79 ± 0.38 | – | –
60 | DTYNDMATLFFNPQESAILQLFHQ [CLCN6] | 2.6 ± 0.34 | 2.43 ± 0.21 | – | –
61 | DVFSENLLADVKGARAALNEIESR [STX11] | 4.22 ± 0.22 | 4.37 ± 0.12 | – | –
62 | DVTGSVKSERRNLLEDDSDEEEDF [VAMP4] | 5.57 ± 0.14 | 5.66 ± 0.25 | – | –
63 | DYRGPDCRYLNFTKGEEISVYVKL [MIA2] | 2.45 ± 0.53 | 2.81 ± 0.95 | – | –
64 | EAFALPDSLLVVLDMDEGTLSFIV [SPSB4] | 2.42 ± 0.21 | 2.53 ± 0.31 | – | –
65 | EARSYLSEEMIAEFKAAFDMFDAD [TNNC2] | 4.16 ± 0.46 | 4.15 ± 0.23 | – | –
66 | ECIYIIEAAPRQCIELYFDEKYSI [NETO1] | 3.08 ± 0.46 | 2.95 ± 0.32 | – | –
67 | ECPTCGHSYNVTQRRPRVLSCLHS [RNF208] | 3.22 ± 0.17 | 3.45 ± 0.49 | – | –
68 | EDQHKLYQQIKAGAYDFPSPEWDT [CAMK2B] | 4.79 ± 0.17 | 4.75 ± 0.12 | – | –
69 | EEAEAGEEAVPEEEGPTVVLNPHP [CHGA] | 5.59 ± 0.14 | 5.44 ± 0.28 | – | –

Row | Sequence | protein stability index [1] | protein stability index [2] | protein stability index [3] | protein stability index [4]
70 | EEAPELDEAELDYLMDVLVGTQAL [SERTAD1] | 4.05 ± 0.25 | 4.22 ± 0.16 | – | –
71 | EEGDEDDWASNKVMFKIGDLGHVT [WEE1] | 4.1 ± 0.23 | 4.39 ± 0.2 | – | –
72 | EEKKLRRSQHARKETEFLRLKRTR [STK38L] | 3.01 ± 0.16 | 3.25 ± 0.27 | – | –
73 | EEKKPGELKRLVESRRQQILREFE [TRIM39] | 4.43 ± 0.55 | 4.59 ± 0.22 | – | –
74 | EEKQHLERLNKEYQEIFQQLQRSW [TRIM43] | 3.84 ± 0.23 | 3.77 ± 0.42 | – | –
75 | EELEAKRLQCPFEQELLRRQQRLN [FAM107A] | 4.59 ± 0.15 | 4.63 ± 0.21 | – | –
76 | EERVETTVTSLKTKVGGTNPNGGS [TPD52L1] | 5.11 ± 0.28 | 5.19 ± 0.21 | – | –
77 | EFFSANAISDQLLGAGSDLKDFTL [ADAMTSL2] | 2.97 ± 0.26 | 3.22 ± 0.42 | – | –
78 | EFLPQGPVAMRVAKLAINQGMEVD [AUH] | – | 3.82 ± 0.18 | – | –
79 | EGEADHSGYAGELGFRAFSGSGNR [UFD1] | 4.63 ± 0.25 | 4.69 ± 0.54 | – | –
80 | EGVPSVFNPPPSRPLQVNTADHRI [FAF2] | 4.421 ± 0.042 | 4.503 ± 0.037 | – | –
81 | EHVLMFAKLALYPCASLLAFASTC [TMEM175] | 3.42 ± 0.23 | 3.14 ± 0.5 | – | –
82 | EIDIFNPQTVGVGRARFTTYEVRM [SNX12] | 2.36 ± 0.069 | 2.57 ± 0.44 | – | –
83 | EIDLDSMRNLKASLENSLREVEAR [KRT18] | 4.23 ± 0.28 | 4.23 ± 0.48 | – | –
84 | EINSHSLFSKWFSESGKLVTKMFQ [TRIP13] | 2.58 ± 0.21 | 2.48 ± 0.42 | – | –
85 | EIPLVIKYKKAVGLKLKQEKKEAY [WDR88] | 2.88 ± 0.32 | 2.56 ± 0.13 | – | –
86 | EKLQKEQKELQDVGQSLRIKEQEV [SASS6] | 4.79 ± 0.94 | 5.29 ± 0.04 | – | –
87 | EKPIGSCVTNPCGPRSRCGPCNTF [KRT33B] | 2.34 ± 0.24 | 2.52 ± 0.27 | – | –
88 | ELENLAAMDLELQKIAEKFSQRG [CHGB] | – | – | 2.62 ± 0.28 | 3.33 ± 0.64
89 | ELGQAVEVIYPQHSKLTDREKTNI [DENND6A] | 3.69 ± 0.35 | 4.28 ± 0.21 | – | –
